Several values for one entry are separate records, joined by “and”; a condition that tells them apart may be missing. Identical values can stand only once.
Assays:
[1] = target: T1, HA-tagged human ILT7 on CT-550 cells (human, UniProt P59901 24-499); assay: cell-based or functional assay
[2] = target: T2, cynomolgus ILT7 (cynomolgus, UniProt P59901 24-499 (human entry)); assay: cell-based or functional assay
[3] = target: T2, cynomolgus ILT7; assay: flow cytometry on CynoILT7 CT-125 cells
Protocol: (§1) Binding of anti-ILT7 variants and isotype controls on human and cynomolgus ILT7 was assessed by flow cytometry analysis using CT-550 and cynoILT7 CT-125 cells respectively. CT-125 cells were used as control. Cells were resuspended in Blocking Buffer (PBS supplemented with 10% FBS) at a concentration of 5 million cells per mL and transferred into a round-bottom 96-well plates (BD Falcon™ Clear Microtest Plate, BD Biosciences) at 100 μL per well. Anti-ILT7 variants and control antibodies were added onto the cells for 30 min at 4° C. on a plate shaker. Cells were washed three times with PBS and resuspended in Blocking Buffer (100 μL/well). Human IgG binding on cell surface was detected using a secondary anti-human IgG antibody conjugated to DyLight 649 (1 in 1000 dilution). Cells were incubated in the dark for 30 min at 4° C. on a plate shaker. Cells were washed three times with PBS and surface fluorescence was acquired using LSRII Flow Cytometry System and FACSDiva Software (both from BD Biosciences).
In order to determine the binding EC₅₀ of the variants on cells expressing cynomolgus ILT7, the antibodies were screened for binding on CynoILT7 CT-125 cells by flow cytometry. […] The graph in FIG. 3 represents the mean results from two independent experiments, and the table in FIG. 3 show the average EC₅₀.

[4] = target: T1, HA-tagged human ILT7 on CT-550 cells; assay: flow cytometry on CT-550 cells
Protocol: as §1
In order to determine the binding EC50 of ILT70019, ILT70028, ILT70052, ILT70076, ILT70080, ILT70083, ILT70089, ILT70100, ILT70137, ILT70142 and ILT70144 on cells expressing human ILT7, the candidates were screened for binding on CT-550 cells by flow cytometry. ILT70080 (EC₅₀=0.28 nM), ILT70083 (EC₅₀=0.37 nM), ILT70137 (EC₅₀=0.41 nM), ILT70144, ILT70142, ILT70052, and ILT70100 bound to human ILT7-expressing cells. […] The anti-ILT7 antibodies 7C7 (7C7 is described above in Example 1) and SBI33 (SBI33 refers to the anti-ILT7 antibody ILT7#33 provided in U.S. Published Application No. 2009/0280128) were used as positive controls.

[5] = target: T3, human ILT7 (human, UniProt P59901 24-499); assay: cell-based or functional assay
[6] = target: T4, recombinant human ILT7 protein (human, UniProt P59901 24-446, limits assumed); assay: BIAcore SPR, IgG captured on chip, ILT7 protein as analyte, koff/kon
T4 construct: Soluble recombinant protein used in ProteOn and BIAcore SPR; also called rILT7; Soluble Recombinant Human ILT7
Protocol: (§2) BIAcore (surface plasmon resonance) was used to measure the kinetic rate (kₒₙ, koff) constants for the binding of afucosylated IgG₁ ILT70137 to human ILT7 protein using an IgG-capture assay format. The binding of each concentration of a two-fold dilution series of the ILT7 protein was recorded after first capturing IgG onto the sensor chip surface, followed by either the ILT7 protein or instrument buffer. In between each pair of injections, the IgG capture surface was regenerated. Individual association and dissociation rate constants were then calculated from the resulting binding curves using the Biaevaluation software available through the vendor's software employing a 1:1 fitting model, which included a term to correct for mass transport limited binding, should it be detected. […] The individual errors for kₒₙ and koff were low, and the overall fit to the data was good as judged by Chi2 values of ˜1% of the calculated Rₘₐₓ (maximum response).

[7] = target: T3, human ILT7; assay: flow cytometry (MFI) on cell line stably expressing human ILT7
Protocol: (§3) Binding of afucosylated ILT70137 to ILT7 was determined using cell lines stably expressing human or cynomolgus monkey ILT7. The mean fluorescence intensity of cell-bound antibodies was assessed by flow cytometry. Cells were incubated with increasing concentrations of test antibody ranging from 0.004 to 333.3 nM for 30 minutes at 4° C. After incubation, cells were washed with cold PBS and incubated for 30 minutes at 4° C. with an anti-human-Alexa Fluor 647 antibody. Fluorescent intensity was then determined by FACS and EC₅₀ values were calculated using a non-linear fit equation in GraphPad Prism 6 software.

[8] = target: T4, recombinant human ILT7 protein; assay: BIAcore SPR, IgG captured on chip, ILT7 protein as analyte, 1:1 model
Protocol: as §2

[9] = target: T2, cynomolgus ILT7; assay: flow cytometry (MFI) on cell line stably expressing cynomolgus monkey ILT7
Protocol: as §3

[10] = target: T2, cynomolgus ILT7; assay: flow cytometry on cynomolgus ILT7-expressing cells, right panel 'Cyno ILT7', table 'Ec50 (nM)'
Protocol: as §1

[11] = target: T1, HA-tagged human ILT7 on CT-550 cells; assay: flow cytometry on human ILT7-expressing cells, left panel 'Human ILT7', table 'Ec50 (nM)'
Protocol: as §1

[12] = target: T2, cynomolgus ILT7; assay: flow cytometry (MFI) on cynomolgus ILT7-expressing cells
Protocol: as §1

[13] = target: T1, HA-tagged human ILT7 on CT-550 cells; assay: flow cytometry (MFI) on human ILT7-expressing cells
Protocol: as §1
Anfucosylated version of ILT70080.6 was generated. […] The tables in FIG. 15 provide the mean results of three independent binding experiments measuring mean fluorescence intensity (MFI).

[14] = target: T4, recombinant human ILT7 protein; assay: SPR on ProteOn
[15] = target: T2, cynomolgus ILT7; assay: flow cytometry (MFI) on cynomolgus ILT7-expressing cells, right panel 'Cynomolgus ILT7', table 'Ec50 (pM) Mean ± SD n=3'
[16] = target: T2, cynomolgus ILT7; assay: flow cytometry on cynomolgus ILT7-expressing cells, bottom panel, table 'Ec50 (pM)'
Protocol: as §1

[17] = target: T1, HA-tagged human ILT7 on CT-550 cells; assay: flow cytometry (MFI) on human ILT7-expressing cells, left panel 'Human ILT7', table 'Ec50 (pM) Mean ± SD n=3'

T1 sequence (P59901 24-499): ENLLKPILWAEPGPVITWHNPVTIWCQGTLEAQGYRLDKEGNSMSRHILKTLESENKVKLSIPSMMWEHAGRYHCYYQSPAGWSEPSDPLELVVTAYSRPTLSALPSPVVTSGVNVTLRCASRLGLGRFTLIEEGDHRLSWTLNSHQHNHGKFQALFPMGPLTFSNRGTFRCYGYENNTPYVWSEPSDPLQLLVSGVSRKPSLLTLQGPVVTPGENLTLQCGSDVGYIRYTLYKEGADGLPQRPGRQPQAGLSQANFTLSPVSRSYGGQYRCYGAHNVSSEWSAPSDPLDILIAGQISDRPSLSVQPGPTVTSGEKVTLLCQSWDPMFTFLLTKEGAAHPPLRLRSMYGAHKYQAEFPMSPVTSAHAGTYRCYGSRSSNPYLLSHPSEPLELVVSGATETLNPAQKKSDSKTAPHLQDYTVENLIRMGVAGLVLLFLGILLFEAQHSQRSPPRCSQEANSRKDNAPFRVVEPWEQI
T2 sequence (P59901 other isoform, or with tags, fused parts or gaps limits assumed): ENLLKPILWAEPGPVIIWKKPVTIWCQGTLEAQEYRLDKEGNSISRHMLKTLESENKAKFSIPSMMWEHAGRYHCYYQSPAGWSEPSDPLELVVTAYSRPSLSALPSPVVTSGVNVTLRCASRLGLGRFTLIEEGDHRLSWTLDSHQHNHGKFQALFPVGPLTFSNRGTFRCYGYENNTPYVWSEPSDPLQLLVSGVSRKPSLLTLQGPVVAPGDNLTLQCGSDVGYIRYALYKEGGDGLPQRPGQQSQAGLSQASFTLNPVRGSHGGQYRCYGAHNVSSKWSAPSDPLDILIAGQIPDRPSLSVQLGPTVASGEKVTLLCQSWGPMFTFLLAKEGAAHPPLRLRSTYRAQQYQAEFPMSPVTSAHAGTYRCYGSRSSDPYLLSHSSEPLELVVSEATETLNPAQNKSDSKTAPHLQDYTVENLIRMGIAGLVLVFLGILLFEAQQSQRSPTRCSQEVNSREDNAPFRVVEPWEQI
T4 sequence (P59901 24-446 limits assumed): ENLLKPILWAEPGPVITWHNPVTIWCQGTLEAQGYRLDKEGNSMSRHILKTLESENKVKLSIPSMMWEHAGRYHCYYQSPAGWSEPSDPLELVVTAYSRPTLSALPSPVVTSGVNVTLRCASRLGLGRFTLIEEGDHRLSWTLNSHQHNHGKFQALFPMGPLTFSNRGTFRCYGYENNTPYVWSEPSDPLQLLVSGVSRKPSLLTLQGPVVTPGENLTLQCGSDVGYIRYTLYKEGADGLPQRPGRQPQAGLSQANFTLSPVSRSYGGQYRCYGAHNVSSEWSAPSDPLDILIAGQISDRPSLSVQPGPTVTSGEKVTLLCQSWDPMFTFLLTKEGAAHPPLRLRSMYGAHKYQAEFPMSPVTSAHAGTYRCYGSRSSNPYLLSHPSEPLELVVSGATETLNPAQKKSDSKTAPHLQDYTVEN
T3 sequence (P59901 24-499): as the sequence (P59901 24-499) above

Binder | ADCC EC50 [1] | ADCC EC50 [2] | EC50 [3] [nM] | EC50 [4] | EC50 [11] [nM] | also measured
ILT70137 (antibody, V domains shown) VH: QVQLQQSGAEVKKPGASVKVSCKASGYTFTSYGISWVRQAPGQGLEWMGWISAYNGNTNYAQKLQGRVTMTTDTSTSTAYMELRSLRSDDTAVYYCARNGLWGWDSDAFDIWGRGTLVTVSS VL: QSALTQPASVSGSPGQSITISCTGTSSDVGGYNYVSWYQQHPGKAPKLMIYDVSNRPSGVSNRFSGSKSGNTASLTISGLQAEDEADYYCSSYTSSSTVVFGGGTKVTVL | 0.044 nM | 0.015 nM | 1.4 | 0.41 nM |  | 
afucosylated ILT70080 (antibody, V domains shown, afucosylated: lacks the α-1,6 fucose moiety on the N-glycan at Asn-297 of the heavy chain, also called Afucosylated variant ITL70080) VH: QVQLVQSGAEVKAPGTSVKVSCKASGDSFRNYAVSWVRQAPGQGLEWMGAMMPSFGTREHSQQFNGRVTLSADESTSTAYLELSSLRYDDTAVYYCAGSRDYNAYHFWTGPPDFWGRGTLVTVSS VL: SYELTQPPSVSVAPGKTAKISCGGDSVGSTSVHWYQQKPGQAPVMVMFYNSDRPSGIPERFSGSISGNTATLTISRVEAGDEADYYCQVWDTSSDHPEFGGGTKLTVL | 0.001 nM | 0.00051 nM |  |  | 0.34 | EC50 [10]: 0.4 nM
10D10 (antibody, V domains shown, Humanized variant of SBI28 from a framework-shuffled Fab library) VH: EVQLVESGGGVVQPGRSLRLSCAASGFTFSTYPIEWVRQAPGQGLEWIGNFHLYNDDTKYNEKFKGRVTMTTDTSTSTVYMELSSLRSEDTAVYYCTRGDDYGMDYWGQGTLVTVSS VL: NIQMTQSPSSLSASVGDRVTITCKASQNVRTAVAWYQQKPGKAPKRLIYLASNRHTGVPSRFSGSGSGTDFTLTISSLQSEDFATYYCLQHWNYPFTFGPGTKLEIK |  |  |  |  |  | fold lower affinity than SBI28ch [14]: 3 fold
ILT70083 (antibody, V domains shown) VH: EVQLLESGGGLVQPGGSLRLSCAASGFTFSSYAMSWVRQAPGKGLEWVSAISGSGGSTYYADSVKGWFTISRDNSKNTLYLQMNSLRAEDTAVYYCARRTYYYDSDGHSDVFDIWGRGTLVTVSS VL: QSVVTQPPSVSAAPGQKVTISCSGSASNIGSNFVSWYQQLPGRAPKLLIYDNDKRDLGIPDRFSASISSTSAALAITGLQTEDEADYYCGTWDTSLTVGVFGGGTKLTVL | 0.089 nM and 0.094 nM | 0.433 nM and 0.36 nM | 1.37 | 0.37 nM and 0.464 nM | 0.25 | EC50 [15]: 1.28 nM; EC50 [16]: 2.65 nM; EC50 [17]: 0.308 nM

The next lines start with results.

ADCC EC50 [1] | ADCC EC50 [2] | EC50 [3] [nM] | EC50 [4] | EC50 [11] [nM] | Binder | also measured
 | 0.00189 nM |  |  |  | afucosylated IgG1 ILT70137 (antibody, V domains shown, afucosylated (made as in Example 7: lacks the α-1,6 fucose moiety on the N-glycan at Asn-297 of the heavy chain), also called afucosylated ILT70137; Afuc IgG1 ILT70137) VH: QVQLQQSGAEVKKPGASVKVSCKASGYTFTSYGISWVRQAPGQGLEWMGWISAYNGNTNYAQKLQGRVTMTTDTSTSTAYMELRSLRSDDTAVYYCARNGLWGWDSDAFDIWGRGTLVTVSS VL: QSALTQPASVSGSPGQSITISCTGTSSDVGGYNYVSWYQQHPGKAPKLMIYDVSNRPSGVSNRFSGSKSGNTASLTISGLQAEDEADYYCSSYTSSSTVVFGGGTKVTVL | ADCC EC50 [5]: 0.00419 nM; Kd [6]: 171 nM; EC50 [7]: 0.303 nM; koff [8]: 0.0318 s⁻¹; kon [8]: 186000 M⁻¹ s⁻¹; EC50 [9]: 2.15 nM
0.00112 nM | 0.00044 nM |  |  |  | afucosylated ILT70080.6 (antibody, V domains shown, afucosylated, also called afucosylated ILT0080.6) VH: QVQLVQSGAEVKKPGSSVKVSCKASGDSFRNYAVSWVRQAPGQGLEWMGAMMPSFGTREHSQQFQGRVTLTADESTSTAYMELSSLRSEDTAVYYCAGSRDYNAYHFWTGPPDFWGRGTLVTVSS VL: SYVLTQPPSVSVAPGKTARITCGGDSVGSTSVHWYQQKPGQAPVLVIYYNSDRPSGIPERFSGSNSGNTATLTISRVEAGDEADYYCQVWDTSSDHPEFGGGTKLTVL | EC50 [12]: 0.366 nM; EC50 [13]: 0.152 nM
